Measured values reported in patent US20260232820A1 (MEDICENNA THERAPEUTICS, published 2026).

B1: human IL-13Rα1 (receptor, UniProt P78552 22-343, looked up)
chain: GGGGAAPTETQPPVTNLSVSVENLCTVIWTWNPPEGASSNCSLWYFSHFGDKQDKKIAPETRRSIEVPLNERICLQVGSQCSTNESEKPSILVEKCISPPEGDPESAVTELQCIWHNLSYMKCSWLPGRNTSPDTNYTLYYWHRSLEKIHQCENIFREGQYFGCSFDLTKVKDSSFEQHSVQIMVKDNAGKIKPSFNIVPLTSRVKPDPPHIKNLSFHNDDLYVQWENPQNFISRCLFYEVEVNNSQTETHNVFYVQEAKCENPEFERNVENTSCFMVPGVLPDTLNTVRIRVKTNKLCYEDDKLWSNWSQEMSIGKKRNST
notes: also called IL-13αR1
B2: human IL-13Rα2 (receptor, UniProt Q14627 27-343, looked up)
chain: DTEIKVNPPQDFEIVDPGYLGYLYLQWQPPLSLDHFKECTVEYELKYRNIGSETWKTIITKNLHYKDGFDLNKGIEAKIHTLLPWQCTNGSEVQSSWAETTYWISPQGIPETKVQDMDCVYYNWQYLLCSWKPGIGVLLDTNYNLFYWYEGLDHALQCVDYIKADGQNIGCRFPYLEASDYKDFYICVNGSSENKPIRSSYFTFQLQNIVKPLPPVYLTFTRESSCEIKLKWSIPLGPIPARCFDYEIEIREDDTTLVTATVENETYTLKTTNETRQLCFVVRSKVNIYCSDDGIWSEWSDKQCWEGEDLSKKTLLR
notes: also called IL-13Ra2; human IL-13 decoy receptor
B3: cpMDNA132.15-PE (other)
chain: MTAGMYCAALESLINVSGCSAIEKTQRMLSGFCPHKVSAGQFSSLHVTGRKIEVAQFVKDLLLHLKKLFKEGQFNGGNGGPGPVPPSTAHRELIRELVNITQNQKAPLCNGSMVWSINLASGGPEGGSLAALTAHQACHLPLETFTRHRQPRGWEQLEQCGYPVQRLVALYLAARLSWNQVDQVIRNALASPGSGGDLGEAIREQPEQARLALTLAAAESERFVRQGTGNDEAGAANGPADSGDALLERNYPTGAEFLGDGGDVSFSTRGTQNWTVERLLQAHRQLEERGYVFVGYHGTFLEAAQSIVFGGVRARSQDLDAIWRGFYIAGDPALAYGYAQDQEPDARGRIRNGALLRVYVPRSSLPGFYRTSLTLAAPEAAGEVERLIGHPLPLRLDAITGPEEEGGRLETILGWPLAERTVVIPSAIPTDPRNVGGDLDPSSIPDKEQAISALPDYASQPGKPPKDEL
B4: MDNA132.15-PE (other)
chain: GPGPVPPSTAHRELIRELVNITQNQKAPLCNGSMVWSINLTAGMYCAALESLINVSGCSAIEKTQRMLSGFCPHKVSAGQFSSLHVTGRKIEVAQFVKDLLLHLKKLFKEGQFNASGGPEGGSLAALTAHQACHLPLETFTRHRQPRGWEQLEQCGYPVQRLVALYLAARLSWNQVDQVIRNALASPGSGGDLGEAIREQPEQARLALTLAAAESERFVRQGTGNDEAGAANGPADSGDALLERNYPTGAEFLGDGGDVSFSTRGTQNWTVERLLQAHRQLEERGYVFVGYHGTFLEAAQSIVFGGVRARSQDLDAIWRGFYIAGDPALAYGYAQDQEPDARGRIRNGALLRVYVPRSSLPGFYRTSLTLAAPEAAGEVERLIGHPLPLRLDAITGPEEEGGRLETILGWPLAERTVVIPSAIPTDPRNVGGDLDPSSIPDKEQAISALPDYASQPGKPPKDEL

Key:
Fc-IL13 (1:1 KIH) = biological target: T1, Fc-IL13 (1:1 KIH) (human, UniProt P35225 34-146); experiment: SPR
T1 construct: also called Fc-IL13 KIH
Method: Receptor binding was assessed using surface plasmon resonance (SPR) in which test constructs (i.e., Fc-MDNA132) were bound onto SPR chip surface and receptors (i.e., IL-13Rα1 and IL-13Rα2) were used as flow analytes (data not shown).
Representative SPR sensorgrams of Fc-MDNA132 and Fc-51.13 binding to […] and IL-13Rα2 is shown in (data not shown) and KD values are tabulated in Table 12. Variants contain the 5 core mutations of MDNA132 and an added mutation at amino acid position indicated in the name of the constructs.

[1] = biological target: IL-13Rα2 on engineered EMT6 cells (EMT6-IL13Rα2); experiment: cell-based or functional assay
[2] = biological target: T2, IL-13Rα2 on human A375 and U87 cells (human, UniProt Q14627 27-380); experiment: cell-based or functional assay
T2 sequence (looked up): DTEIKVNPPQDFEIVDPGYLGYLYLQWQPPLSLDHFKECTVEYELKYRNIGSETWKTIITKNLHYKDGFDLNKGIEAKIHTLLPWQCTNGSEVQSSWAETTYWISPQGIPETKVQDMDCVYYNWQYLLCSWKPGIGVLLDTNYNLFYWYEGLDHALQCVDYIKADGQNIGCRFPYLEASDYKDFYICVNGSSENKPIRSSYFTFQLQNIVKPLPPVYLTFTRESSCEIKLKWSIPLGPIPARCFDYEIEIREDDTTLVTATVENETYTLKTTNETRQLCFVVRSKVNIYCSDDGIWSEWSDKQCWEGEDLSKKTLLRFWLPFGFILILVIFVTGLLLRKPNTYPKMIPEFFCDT

[3] = biological target: IL-13Rα2 on engineered EMT6 cells (EMT6-IL13Rα2); experiment: cell-based or functional assay; remark: listed apart in the source
[4] = biological target: T2, IL-13Rα2 on human A375 and U87 cells; experiment: cell-based or functional assay; remark: listed apart in the source

Binder | Kd (Fc-IL13 (1:1 KIH)) [nM] | IC50 (pM), cytotoxicity assay, EMT6-IL13Rα2 cells, 72 h incubation [1] [pM] | IC50 (pM), cytotoxicity assay, A375 cells, 72 h incubation [2] [pM] | IC50 (pM), cytotoxicity assay, U87 cells, 72 h incubation [2] [pM] | IC50 (pM), cytotoxicity assay, EMT6-IL13Rα2 cells, 48 h incubation [3] [pM] | IC50 (pM), cytotoxicity assay, A375 cells, 48 h incubation [4] [pM] | IC50 (pM), cytotoxicity assay, U87 cells, 48 h incubation [4] [pM]
B1 | 470 |  |  |  |  |  | 
B2 | 0.15 |  |  |  |  |  | 
B3 |  | 1 | 1.3 | 7.6 | 1 | 1.5 | 4.2
B4 |  | 1.13 | 1.1 | 208 | 2.1 | 1.02 | 11.4
